The target in assay [1] is T1, 重组人白介素-1β，R&D货号:840170 (recombinant human IL-1β standard of the sandwich ELISA) (human, UniProt P01584 117-269).
T1 construct: also called 标准样品; 人白介素-1β蛋白
Kind of assay: double-antibody sandwich ELISA, 10A10 capture and 1F3-biotin detection, human IL-1β at 100pg/mL. In general terms: ELISA stands for enzyme-linked immunosorbent assay.

The target in assay [2] is T2, 重组人IL-1β蛋白 (recombinant human IL-1β protein, as used in the Gator BLI experiments) (human, UniProt P01584 117-269).
T2 construct: also called 人白介素-1β; 目的蛋白
Put plainly: BLI (Gator Prime), affinity test.

The target of assay [3] is 重组人IL-1β蛋白 (recombinant human IL-1β protein, as used in the Gator BLI experiments) (human) (UniProt P01584). Put plainly: BLI (Gator Prime), IL-1β on the probe saturated with 1F3, 10A10 as second antibody.

B1: 兔单克隆抗体1F3 (rabbit monoclonal antibody 1F3 against human IL-1β) (antibody, V domains shown)
VH: QSVEESGGRLVTPGTPLTLTCTVSGFSLSRNAISWVRQPPGKGLEWIGFISSYDTTYYATWAKGRFTISKTSTTVDLKIASPTTEDTATYFCARETGADNNSNFDIWGPGTLVTVSS
VL: AQVLTQTPSPVSAAVGGTVTINCQSSQSVSHNNWLAWYQQKPGQPPKLLIYDASKLASGVSSRFRGSGSGTQFTLTISGVQCDDAATYYCQGETFCSSADCNAFGGGTELVVKG
notes: In the BLI experiments it was unlabelled; also called 兔抗Human IL-1β单克隆抗体A; 1F3-biotin
Take B1: the binding result in assay [1] and in assay [2] was “binds” in each case.

B2: 兔单克隆抗体10A10 (rabbit monoclonal antibody 10A10 against human IL-1β) (antibody, V domains shown)
VH: QSVEESGGRLVTPGTPLTLTCTVSGFSLSTYAMSWVRQAPGKGLEWIGIISGSGNTAYASWAKGRFTISKTSTTVDLKMTSPTTEDTATYFCARSYEDYANIWGPGTLVTVSS
VL: AQVLTQTPSSVSAAVGGTVTINCQASQSLYNNNELSWYQQKPGQPPKLLIYKASTLASGVSSRFKGSGSGTQFTLTISGVQCDDAATYYCQGDYSCRIADCYAFGGGTEVVVKG
B2: the shift值 in assay [3] came to 0.214.
